# Laboratory results published in patent publication US20250152742A1, “COMPOSITIONS AND METHODS FOR NEUROLOGICAL DISEASES” (Trames Bio, Inc., priority 2022, published 2025).
# B1: CODA1140: engineered receptor: R101F, L131N, S172D in SEQ ID NO: 33 (protein)
# chain: MRCSPGGVWLALAASLLHVSLQGEFQRKLYKELVKNYNPLERPVANDSQPLTVYFSLSLLQIMDVDEKNQVLTTNIWLQMSWTDHYLQWNVSEYPGVKTVFFPDGQIWKPDILLYNSADERFDATFHTNVNVNSSGHCQYLPPGIFKSSCPMDLKNFPMDVQTCKLKFGSWDYGGWSLDLQMQEADISGYIPNGEWDLVGIPGKRSERFYECCKEPYPDVTFTVTMRRRMGYYLIQMYIPSLLIVILSWISFWINMDAAPARVGLGITTVLTMTTQSSGSRASLPKVSYVKAIDIWMAVCLLFVFSALLEYAAVNFVSRQHKELLRFRRKRRHHKSPMLNLFQEDEAGEGRFNFSAYGMGPACLQAKDGISVKGANNSNTTNPPPAPSKSPEEMRKLFIQRAKKIDKISRIGFPMAFLIFNMFYWIIYKIVRREDVHNQ
# modifications: synthetic sequence of chimeric LGIC
# Key:
# Assay type in all cases: cell-based
# [1] = test system: engineered chimeric receptor SEQ ID NO: 33 and its mutants (human α7-nAChR ligand binding domain / human GlyRα1 ion pore domain) in Lenti-X 293T cells; test: YFP fluorescence quenching anion reporter plate reader assay (percent quench, EC50); details: for YFP fluorescence quenching using CNL001 (percent quench): receptor named in row; for YFP fluorescence quenching using Varenicline, 3 nM var: ligand Varenicline 3 nM; for YFP fluorescence quenching using Varenicline, 30 nM var: ligand Varenicline 30 nM; for YFP fluorescence quenching using Varenicline, 300 nM var: ligand Varenicline 300 nM; for YFP fluorescence quenching using Varenicline, 500 nM var: ligand Varenicline 500 nM; for YFP fluorescence quenching using Varenicline, 1 uM var: ligand Varenicline 1 uM
# How it was run: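 Lenti-X 293T cells co-expressing an anion-quenchable YFP were transiently transfected with receptor DNA, then ligand was added in NaI-substituted buffer (pH 7.2) after 30 min at 37 °C. Fluorescence was read about 2 min; percent quench = mean of last 10 s over 15 s pre-ligand baseline.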
# rat hippocampal neurons [2] = test: Evoked rheobase shift, rat hippocampal neurons (current clamp)
# Method: No holding current was applied to the membrane for cells included in the final datasets. Data acquisition settings and analysis methods were the same as for the DRG rheobase experiments.
# Hippocampal neurons: Hippocampal rheobase experiments were performed in current clamp mode using a potassium-based internal solution containing (in mM): 115 potassium D-gluconate (G4500), 13 potassium chloride (P9333), 1 magnesium chloride hexahydrate (M2670), 5 magnesium ATP (A9187), 10 HEPES (54457), and 0.5 EGTA (3777) (pH=7.2 with potassium hydroxide, osmolarity=290-295 mOsm, calculated liquid junction potential=−14.9 mV. NBQX (10 μM) and AP5 (50 μM) were included in the bath to block excitatory synaptic transmission. To measure HC input resistance and rheobase, 500 ms current steps (−200 pA to 700 pA) were applied the membrane in the presence and absence of a compound. No holding current was applied to the membrane for cells included in the final datasets. Data acquisition settings and analysis methods were the same as for the DRG rheobase experiments.
# rat hippocampal neurons [3] = test: Spontaneous action potential firing rate, hippocampal neurons (current clamp)
# Method: Spontaneous activity was recorded in gapfree mode, in the presence and absence of a compound. Data were acquired at 10 kHz, with Bessel filter at 2 kHz and series resistance compensation at 100%. No holding current was applied to the membrane. […] For Clampfit, threshold-based event detection was run separately for each epoch to detect action potentials. For the custom Python code, a peak-finding package was used to automatically detect action potentials (SciPy). For both methods, minimum height, average height, maximum height were measured and frequency was calculated as the number of events in the epoch divided by the length of time of the epoch. For Clampfit, the resting membrane potential was measured at 3 points between events and averaged for each epoch. […] For both methods, membrane potential was corrected for the calculated liquid junction potential. […]
# Hippocampal spontaneous action potential experiments: Hippocampal spontaneous action potentials were recorded in current clamp mode using a potassium-based internal solution containing (in mM): 115 potassium D-gluconate (G4500), 13 potassium chloride (P9333), 1 magnesium chloride hexahydrate (M2670), 5 magnesium ATP (A9187), 10 HEPES (54457), and 0.5 EGTA (3777) (pH=7.2, osmolarity=290-295 mOsm, calculated liquid junction potential=−14.9 mV). Spontaneous activity was recorded in gapfree mode, in the presence and absence of a compound. […]
molecule,measurement,setting,value
B1,YFP fluorescence quenching using CNL001 (percent quench),"[1]; 1 nM CNL001, first column so headed",52.592%
same,YFP fluorescence quenching using CNL001 (percent quench),"[1]; 1 nM CNL001, second column so headed",61.248%
same,YFP fluorescence quenching (percent quench),[1]; 1 nM CNL002,0.337%
same,YFP fluorescence quenching using CNL001 (percent quench),"[1]; 10 nM CNL001, first column so headed",71.678%
same,YFP fluorescence quenching using CNL001 (percent quench),"[1]; 10 nM CNL001, second column so headed",71.881%
same,YFP fluorescence quenching (percent quench),[1]; 10 nM CNL002,59.894%
same,YFP fluorescence quenching using CNL001 (percent quench),"[1]; 50 nM CNL001, first column so headed",73.807%
same,YFP fluorescence quenching using CNL001 (percent quench),"[1]; 50 nM CNL001, second column so headed",75.649%
same,YFP fluorescence quenching (percent quench),[1]; 50 nM CNL002,76.501%
same,YFP fluorescence quenching using ABT-126 (percent quench),[1]; 50 nM abt (ABT-126),−7.87%
same,YFP fluorescence quenching using CNL001 (percent quench),"[1]; 100 nM CNL001, first column so headed",76%
same,YFP fluorescence quenching using CNL001 (percent quench),"[1]; 100 nM CNL001, second column so headed",76.329%
same,YFP fluorescence quenching (percent quench),[1]; 100 nM CNL002,79.03%
same,YFP fluorescence quenching using ABT-126 (percent quench),[1]; 100 nM abt (ABT-126),−5.35%
same,YFP fluorescence quenching using ABT-126 (percent quench),[1]; 300 nM abt (ABT-126),−3.67%
same,YFP fluorescence quenching using CNL001 (percent quench),"[1]; 1 uM CNL001, first column so headed",76.168%
same,YFP fluorescence quenching using CNL001 (percent quench),"[1]; 1 uM CNL001, second column so headed",74.076%
same,YFP fluorescence quenching (percent quench),[1]; 1 uM CNL002,82.85%
same,YFP fluorescence quenching using ABT-126 (percent quench),[1]; 1 uM abt (ABT-126),3.64%
same,YFP fluorescence quenching using ABT-126 (percent quench),[1]; 10 uM abt (ABT-126),5.91%
same,YFP fluorescence quenching (percent quench),[1]; 10 uM ach (acetylcholine),−20.07%
same,YFP fluorescence quenching (percent quench),[1]; 30 uM ach (acetylcholine),−16.92%
same,YFP fluorescence quenching (percent quench),[1]; 100 uM ach (acetylcholine),−25.8%
same,YFP fluorescence quenching (percent quench),[1]; 300 uM ach (acetylcholine),−11.21%
same,YFP fluorescence quenching (percent quench),[1]; 1 mM ach (acetylcholine),9.02%
same,YFP fluorescence quenching (percent quench),[1]; 3 mM ach (acetylcholine),45%
same,"YFP fluorescence quenching using Varenicline, 3 nM var",[1]; first column,−6.169
same,"YFP fluorescence quenching using Varenicline, 3 nM var",[1]; second column,−10.445
same,"YFP fluorescence quenching using Varenicline, 30 nM var",[1]; first column,−9.679
same,"YFP fluorescence quenching using Varenicline, 30 nM var",[1]; second column,−10.878
same,"YFP fluorescence quenching using Varenicline, 300 nM var",[1]; first column,−9.572
same,"YFP fluorescence quenching using Varenicline, 300 nM var",[1]; second column,−8.873
same,"YFP fluorescence quenching using Varenicline, 500 nM var",[1]; first column,−14.656
same,"YFP fluorescence quenching using Varenicline, 500 nM var",[1]; second column,−11.304
same,"YFP fluorescence quenching using Varenicline, 1 uM var",[1]; first column,−13.996
same,"YFP fluorescence quenching using Varenicline, 1 uM var",[1]; second column,−16.128
same,"Rheobase Shift Evoked; Rat Hippocampal Neurons, Baseline","rat hippocampal neurons [2]; baseline, no ligand",40.63 ± 10.50 pA
same,"Rheobase Shift Evoked; Rat Hippocampal Neurons, +CNL002 @ EC90",rat hippocampal neurons [2]; ligand CNL002 at EC90,296.9 ± 72.65 pA
same,"Firing Rate Spontaneous; Rat Hippocampal Neurons, Baseline","rat hippocampal neurons [3]; baseline, no ligand",3.29 ± 0.75 Hz
same,"Firing Rate Spontaneous; Rat Hippocampal Neurons, +CNL002 @ EC90",rat hippocampal neurons [3]; ligand CNL002 at EC90,0.71 ± 0.29 Hz
